According to paper PMC10899789, “Flexible structural arrangement and DNA-binding properties of protein p6 from Bacillus subtillis phage φ29” (Nucleic Acids Research, 2024):

B1: Full-length protein p6 (wt) of Bacillus subtilis bacteriophage φ29 (natural protein, UniProt P03685 1-104, looked up)
chain: MAKMMQREITKTTVNVAKMVMVDGEVQVEQLPSETFVGNLTMEQAQWRMKRKYKGEPVQVVSVEPNTEVYELPVEKFLEVATVRVEKDEDQEEQTEAPEEQVAE
notes: numbers count on: the traditional numbering of φ29 p6, where the second residue (Ala) is position 1 because the initial Met is removed in vivo; about 11.8 kDa as printed; also called wt p6; φ29 protein p6; source: produced and purified as previously described (23)
B2: p6CΔ20 (residues 1–83), C-terminal deletion mutant of φ29 protein p6 (domain or fragment)
chain: AKMMQREITKTTVNVAKMVMVDGEVQVEQLPSETFVGNLTMEQAQWRMKRKYKGEPVQVVSVEPNTEVYELPVEKFLEVATVR

Target: the molecule itself
Test: AUC; sedimentation velocity, protein alone, 48 000 rpm, 20°C, 50 mM Tris-HCl pH 7.5, 10 mM MgCl2, 50 mM NaCl; 2.5-320 μM protein; isotherms of weight-average sedimentation coefficients fitted to a monomer-dimer self-association model (SEDPHAT); dimer to monomers

| Protein | Kd [µM] |
| --- | --- |
| B1 | 11.4 |
| B2 | 47 |
